Fold over background (A450) data for 21 molecules are collected here from US20220119522A1.

Substitutions are numbered along the chain they refer to.

B1: CL0020103 (antibody, V domains shown)
VH: EVQLQQSGPELVKPGASVKISCKTSGYTFTEYTMHWVKESHGKSLEWIGGINPNKGGSSYNQKFKGKATLTVDKSSSTAYMDLRRLTSEDSAVYYCARGGYEYYALDYWGQGTSVTVSS
VL: DIVMSQSPSSLTVSVGERVTMSCKSSQSLLYSRNQKNYLAWYQQKPGQSPKLLIYWASTRESGVPDRFTGSGSGTDFSLTISSVKAEDLAVYYCQQYYSYPPTFGGGTKLEIK
B2: CL0020139 (antibody, V domains shown)
VH: EVQLQQSGPELVKPGASVKMSCKAPGYSFTSYLMNWVKQKPGQGLEWIGYINPYSAGSNYNEKFKDKATLTSDKSSSTAYMELRSLTSEDSAVYFCARSSYRYGFDYWGQGTTLTVSS
VL: DIQMTQSSSSFSVSLGDRVTITCKASEDIYNRLAWYQQKPGNAPRLLISGATSLETGVPSRFSGSGSGKDYTLSITSLQTEDVATYSCQQYWSTPWTFGGGTKLEIK
B3: CL0020113 (antibody, V domains shown)
VH: QIQLVQSGPELKKPGESLKISCKASGYTFTDYAMQWVKQAPGKGLQYMGWINTQTGKPTYADDFKERFVFSLETSASTAYLKINNLKNDDMATYLCARSYGGEYNWIAYWGQGTLVTVSS
VL: DIVMTQTPSSQAVSAGEKVTMNCKSSQSLLYNENKKNYLAWYQQKPGQSPKLLIYWASTRESGVPDRFIGSGSGTDFTLTISSVQAEDLAVYYCQQSYNFPPTFGGGTKLELK
B4: CL0020215 (antibody, V domains shown)
VH: QVQLQQPGAELVKPGASVKMSCKASGYTFTNYWIMWVKQRPGQGLEWIGDIYPSSGSTNYNEKFKNRATLTVDTSSNTAYMQLSSLTSEDSAVYFCSREGYGISAWGQGTTLTVSS
VL: QIVLTQSPAIMSASPGEKVTITCSASSSVSYMHWFQQKPGTSPKLWIYSTSNLASGVPARFSGSGSGTSCSLTISRMEAEDAATYYCQQRSSFPLTFGAGTKLELK
B5: CL0020111 (antibody, V domains shown)
VH: B4 VH with E10D, M35T, K38Q, S54G, S57N, K65R, N66S, R67K, F95Y
VL: B4 VL with I10F, S24R, Y48F, C70H, S92G, F93Y
B6: CL0020164 (antibody, V domains shown)
VH: EVKLLESGGGLVQPGGSLRLSCAASGFTFTDFYMSWIRQPPGKAPEWLGVIRNKANGFTTEYNTSVKGRFTISRDYTQNILHLQTNTLRAEDTAIYYCARLTYGFDYWGQGVMVTVSS
VL: DIVMTQGALPNPVPSGESASITCQSSKSLLHSNGKTYLNWYLQRPGQSPQFLIYWMSTRASGVSDRFSGSGSGTDFTLKISSVEAEDVGVYYCQQFLELPFTFGSGTKLEIK
B7: CL0020123 (antibody, V domains shown)
VH: EVQLQQSGAELVRSGASVKLSCTASGFSIEDFYIHWVKQRPEQGLEWIGWIDPENGDSKYAPKFQGKATMTADTSSNTAYLHLSSLTSEDTAVYYCHADHGNYGSTMDYWGQGTSVTVSS
VL: DIQMNQSPSSLSASLGDTVTITCHASQHINVWLSWYQQKPGDHPKLLIYKASNLHTGVPSRFSGSGSGTGFTLTISSLQPEDIATYYCQQGQTYPRTFGGGTKLEIK
B8: CL0020162 (antibody, V domains shown)
VH: QIQLVQSGPELKKPGESLKISCKASGYTFTDYAMQWVKQAPEKGLQYMGWINTQTGKPTYADDFKERFVFSLETSATTAYLQINNLKNEDMATYFCVRSYNNYENWFAYWGQGTLVTVSS
VL: DIVMTQSPSSLAVSAGETVTINCKSSQSLLYSGNQKNYLAWYQQKPGQSPKVLIYWASTRQFGVPDRFIGSGSGTDFTLTISSVQAEDLAIYYCQQYYNSPITFGSGTKLEIK
B9: CL0020120 (antibody, V domains shown)
VH: EVQLQQSGPELVRTGASVKISCRASSYSFTDNYIHWVKQTHGRSLEWIGYISGYTGATSYNQKFKGKATFTVDTSSSTAYMQFNSLTSEDSAVYYCARSTMIAPYGMDYWGQGTSVTVSS
VL: DIVMTQSHKFMSTSVGDRVNITCKASQDVVTAVAWYQQKPGQSPKLLIYWASTRHTGVPDRFTGSGSGTDFTLTISNVQSEDLADYFCQQYSRYPLTFGAGTKLELK
B10: CL0020206 (antibody, V domains shown)
VH: EVQLQQSGPVLVKPGASVKMSCKASGYTFTDYYMNWVKQSHGKSLEWIGIINPYSGGISYNQKFKGKAILTVDKSSSTAYMELNSLTSEASAVYYCTRRNWDGRYAMDYWGQGTSVTVSS
VL: B9 VL with N20S, C23Y, V30G, T31S, A51T, R93S, L96F, A100G, L106I
B11: CL0020127 (antibody, V domains shown)
VH: B10 VH with T28K, I50T, I69T
VL: B9 VL with N20S, V30S, D85E, R93S, L96F, A100G, L106I
B12: CL0020186 (antibody, V domains shown)
VH: EVQLVESGGGLVQPGRSLKLSCPASGFTFSYYGMAWVRQAPTKGLEWVASISTGGGNTYYRDSVKGRFTISRDNAKNTLYLQMDSLRSEDTATYYCARGDIGTAYWFTYWGQGTLVTVSS
VL: NIQLTQSPSLLSASVGDRVTLSCKGSQNINNYLAWYQQKLGEAPKLLIYKTNSLLTGIPSRFSGSGSGTDYTLTISSLHSEDLATYYCYQYNNGWTFGGGTKLELK
B13: CL0020173 (antibody, V domains shown)
VH: EVKLLESGGGLVQPGSSMRLSCAASGFTFTDFYMNWIRQPAGRAPEWLGFFRNIVDGYTTEYNPSVKGRFTISRDNTQNMLYLQMNTLRAEDTATYYCARSGYSSYIYGGTFAYWGQGTLVTVSS
VL: ETVMTQSPTSMSTSIGERVTLNCKASQSVGIHVDWYQQTPGQSPKLLIYGASNRHTGVPDRFTGSGFGRDFTLTISNVEAEDLAVYYCLQYGSIPWTFGGGTKLELK
B14: CL0020210 (antibody, V domains shown)
VH: QIQLVQSGPELRKPGETVKISCKASGYTFTTYGMSWVKQAPGKGLKWMGWINTYSGLPRHSDDFKGRFAFSLETSASTAYLQINNLKNEDTATYFCAREVYYGSRKTAWFAYWGQGTLVTVSA
VL: DLVMSQSPSSLAVSVGERITMTCKSSQSLLYSNDQKNYLAWYQQIPGQSPKLLLYWASTRESGVPDRFTGSGSGTDFTLTISSVKAEDLAVYFCQQYYNYPPTFGAGTKLELK
B15: CL0020161 (antibody, V domains shown)
VH: EVQLVESGGGLVQPGRSMKLSCAALGFTFSNYYMAWVRQAPRKGLEWVASISTGGDNTYYRDSVKGRFTISRDNAKSTLYMQMDSLRSEDTATYYCVRSFIVGTTGYYFDYWGQGVMVTVSS
VL: DIVLTQSPALAVSLGQRATISCKTNQNVDYYGNNYMHWYQQTPGQQPKLLIYFASNLASGIPARFSGRGSGTDFTLTIDPVEADDTATYYCQQSRNLPTFGGGTKLELK
B16: CL0020201 (antibody, V domains shown)
VH: EVQLQQSGPVLVKPGASVRMSCKPSGYTFTDYYMNWVKQSHGKSLEWIGSINPYTGGSSYNQNFRGKATLTVDKSSSTAYMELNSLTSEDSAVYYCARGSYYSNLGFAYWGQGTLVTVSA
VL: DVQLTQSPSFLTASPGETITINCRASKSISKYLAWYQEKPGKTNKLLISSGSTLQSGIPSRFSGSGSGTDFTLTISSLEPEDFAMYYCQQYSEYPFTFGSGTKLEIK
B17: CL0020195 (antibody, V domains shown)
VH: EVQLVESGGGLVQPGRSMMLSCSASGFTFSNYHMAWVRQAPTTGLEWVASITTGSGNTYYRHSVKGRFTISRDNAKSTLYLQMDSLRSEDTASYYCARRWYGGYEGYYFDYWGQGVMVTVSS
VL: DIQMTQSPSLLSASVGDRVTLSCKAGQNVNNYLAWYQQKLGEAPKLLIYNANILQTGFPSRFSGTGSGTDFTLTISSLQPEDVATYFCQQYNSWTTFGGGTKLELK
B18: CL0020109 (antibody, V domains shown)
VH: EVQLQQSGPVLVKPGASLKMSCRASGYTFTDYYVHWVKQSHGKSLEWIGLINPYTGTTSYNQRFKGKATLTVDKSSSTAYMEVNSLTSEDSAVYYCARSRVYYGSSLFAFWGQGTLVTVSA
VL: DIVMTQSPSSLSVSAGEKVTMSCKSSQSLLNSGNQKNYLAWYQQKPGQPPKLLIYGASTRESGVPDRFTGSGSGTDFTLTISSVQAEDLAVYYCQNDHSYPYTFGGGTKLEIK
B19: CL0020205 (antibody, V domains shown)
VH: B18 VH with L18V, R23K, K65R, G66V
VL: B18 VL
B20: CL0020214 (antibody, V domains shown)
VH: QVRLQQSGAELVRPGSSVKLSCKASGYAFSSYWMNWVKQRPGQGLEWIGQIYPGDGDTNYNGNFKGKATLTADNSSSTAYMQLSSLTSEDSAVYFCARRRNGDFGDYAMDYWGQGTSVTVSS
VL: QIVLTQSPAIMSASPGEKVTISCSASSSVSYMCWYQQKPGSSPKPWIYRTSTLASGVPARFSGSGSGTSYSLTISSMEAADAATYYCQHYHSYPFTFGAGTKLELK
B21: CL0020313 (antibody, V domains shown)
VH: QVQLKQSGPGLLQPSQSLSITCTVSGFSLTSYGVHWVRQSPGKGLEWLGVIWSGGITLYNAAFMSRLSITKDNSKSQVFFKMNSLQADDTAIYYCAKVGYGSSSDYWGQGTTLTVSS
VL: DVLMTQSPLSLPVSLGDQASFSCRSSQSIVHSNGNTYLEWYLQKPGQSPKLLIYKVSNRFSGVPDRFSGSGSGTDFTLKISRVEAEDLGVYYCFQGSHVPFTFGSGTKLEIK

In this assay the target is mouse TREM2 truncated stalk peptide (aa 149-163) (mouse) (UniProt Q99NH8). In words: ELISA on biotinylated peptide captured by streptavidin; A450 normalised to isotype control. (An ELISA detects its analyte on a solid surface through an enzyme-linked reagent.)
For the molecule B1, the fold over background (A450) came out at 1.8 fold.
The same measure for B2: 1.6 fold; for B3: 1.3 fold.
Consider B4, for which the fold over background (A450) worked out at 1.2 fold.
Regarding B5, the fold over background (A450) amounted to 1.5 fold.
For the molecule B6, the fold over background (A450) was determined as 1.5 fold.
B7: the fold over background (A450) came out at 0.9 fold.
Then B8, with 1.4 fold.
As to B9, the fold over background (A450) turned out to be 1.2 fold.
B10: the fold over background (A450) amounted to 1.6 fold.
The same measure for B11: 1.2 fold; for B12: 1.3 fold; for B13: 1.2 fold.
The same measure for B14: 1.6 fold; for B15: 1.1 fold.
In the case of B16, the fold over background (A450) worked out at 1.8 fold.
B17: the fold over background (A450) came out at 1.2 fold.
Then B18, with 1.7 fold.
The same measure for B19: 1.1 fold.
Then B20, with 1.3 fold.
In the case of B21, the fold over background (A450) stood at 1.1 fold.
